T1: Aurora kinase A (AURKA) (Homo sapiens, UniProt O14965)
T1 construct: residues 122–403
T1 sequence (O14965 122-403): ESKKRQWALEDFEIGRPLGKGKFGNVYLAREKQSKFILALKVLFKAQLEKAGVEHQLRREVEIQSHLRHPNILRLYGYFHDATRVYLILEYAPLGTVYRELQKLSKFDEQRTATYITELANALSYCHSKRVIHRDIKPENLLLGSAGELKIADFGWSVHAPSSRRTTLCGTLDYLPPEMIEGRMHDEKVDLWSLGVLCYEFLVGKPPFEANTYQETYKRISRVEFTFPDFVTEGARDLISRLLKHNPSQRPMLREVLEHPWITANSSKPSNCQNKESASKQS

T2: Aurora kinase C kinase domain (truncation not stated for this experiment), phosphorylated (human)
T2 sequence (Q9UQB9 whole entry, looked up): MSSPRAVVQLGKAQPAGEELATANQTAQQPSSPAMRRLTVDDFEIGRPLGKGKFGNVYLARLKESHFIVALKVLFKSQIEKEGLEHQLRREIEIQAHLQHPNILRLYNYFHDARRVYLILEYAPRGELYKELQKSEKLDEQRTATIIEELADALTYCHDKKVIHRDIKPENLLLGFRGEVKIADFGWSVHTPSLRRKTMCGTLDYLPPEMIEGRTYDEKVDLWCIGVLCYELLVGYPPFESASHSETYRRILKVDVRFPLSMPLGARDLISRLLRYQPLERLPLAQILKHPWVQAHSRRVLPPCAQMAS

T3: Aurora kinase C kinase domain (truncation not stated for this experiment), phosphorylated
T3 chain: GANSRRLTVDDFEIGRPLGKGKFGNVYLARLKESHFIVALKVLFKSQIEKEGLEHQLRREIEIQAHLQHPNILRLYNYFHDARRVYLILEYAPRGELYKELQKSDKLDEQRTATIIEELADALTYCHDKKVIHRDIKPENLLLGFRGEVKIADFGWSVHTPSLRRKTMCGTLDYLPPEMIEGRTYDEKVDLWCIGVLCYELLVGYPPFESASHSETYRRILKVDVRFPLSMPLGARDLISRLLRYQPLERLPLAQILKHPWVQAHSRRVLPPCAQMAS

B1: INCENP IN-box (residues 835–903), phosphorylated on the TSS motif, Q9NQS7-1 S893A; S894A; W897A (protein)
chain: MEAHPRKPIPTWARGTPLSQAIIHQYYHPPNLLELFGTILPLDLEDIFKKSKPRYHKRTAAAVANSPPLQ

How the values were obtained:
Aurora kinase C (AURKC) = target: T4, Aurora kinase C (AURKC) (Homo sapiens, UniProt Q9UQB9); assay: co-crystal structure ([…] Å); assay type: binding
T4 construct: residues 36–305 of AURKC isoform 1; with INCENP (residues 835–903, phosphorylated on Ser893 and Ser894)

Aurora kinase B (AURKB) = target: T5, Aurora kinase B (AURKB) (Homo sapiens, UniProt Q96GD4); assay: isothermal titration calorimetry; BLI kinetics (slow off-rate); assay type: binding
T5 construct: kinase domain co-expressed with INCENP residues 835–903; with INCENP (residues 835–903)

Aurora kinase A (AURKA) = target: T1, Aurora kinase A (AURKA); assay: crystal structure ([…] Å) and isothermal titration calorimetry; assay type: binding
[1] = target: T2, Aurora kinase C kinase domain (truncation not stated for this experiment), phosphorylated (human)
[2] = target: T2, Aurora kinase C kinase domain (truncation not stated for this experiment), phosphorylated (human); assay: native MS; native nano-ESI ion mobility-mass spectrometry of the co-purified complexes, 250 mM ammonium acetate, ca. 10 µM, gentle ionisation conditions
[3] = target: T3, Aurora kinase C kinase domain …; assay: native mass spectrometry (native ESI-MS); conditions: chain shown with the change; concentration of ca. 10 µM; same gentle ionisation conditions; parent: 0

T5 sequence (Q96GD4 77-327 limits assumed): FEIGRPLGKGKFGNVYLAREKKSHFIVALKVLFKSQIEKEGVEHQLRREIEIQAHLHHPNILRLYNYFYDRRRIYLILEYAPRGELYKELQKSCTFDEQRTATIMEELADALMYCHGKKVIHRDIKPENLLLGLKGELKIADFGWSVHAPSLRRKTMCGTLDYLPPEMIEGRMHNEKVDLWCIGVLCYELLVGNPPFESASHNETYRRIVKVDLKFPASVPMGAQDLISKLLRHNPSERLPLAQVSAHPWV
T5 sequence (Q9NQS7 835-903 partner): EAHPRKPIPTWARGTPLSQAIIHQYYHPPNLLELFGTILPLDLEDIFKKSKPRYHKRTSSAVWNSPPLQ
T4 sequence (Q9NQS7 835-903 partner, one chain of several): as the sequence (Q9NQS7 835-903 partner) above

| Molecule | Kcat of the AURKC:INCENP complex on a peptide substrate [1] | Km(peptide) of the AURKC:INCENP complex [1] | further results |
| --- | --- | --- | --- |
| COc1ccc(NC(=O)Nc2ccc3c(c2)C(=O)N([C@@H](C)CO)C[C@H](C)[C@H](CN(C)Cc2ccc4c(c2)OCO4)O3)cc1 [BRD-7880] | – | – | co-crystal structure (1.75 Å) (Aurora kinase C (AURKC)): The co-crystal structure with AURKC:INCENP reveals a completely ordered BRD-7880 molecule (Fig. 5a) which binds in the ATP-binding site; Kd (Aurora kinase B (AURKB)): 16 nM; Kd (Aurora kinase A (AURKA)): 341 nM |
| INCENP IN-box (residues 835–903) S893A (from UniProt Q9NQS7-1 835-903) (domain or fragment) | 46300 | 83 µM | – |
| INCENP IN-box (residues 835–903) S894A (from UniProt Q9NQS7-1 835-903) (domain or fragment) | 38800 s⁻¹ | 83 µM | – |
| INCENP IN-box (residues 835–903) W897A (from UniProt Q9NQS7-1 835-903) (domain or fragment) | 41800 | 25.1 µM | – |
| INCENP IN-box (residues 835–903), phosphorylated on the TSS motif (from UniProt Q9NQS7-1 835-903) (domain or fragment) | 48800 | 18.7 µM | % complex formed [2]: 100% |
| B1 | – | – | other: % unbound AURKC (% unbound AURKC) [3]: 40 |
